# From patent US8691944
# Columns and labels:
# [1] = biological target: platelet-derived growth factor-BB (PDGF-BB) (UniProt P01127); assay: equilibrium binding
# [2] = biological target: basic fibroblast growth factor (bFGF, FGF-2) (UniProt P09038); assay: binding assay, method not restated
# [3] = biological target: platelet-derived growth factor-BB (PDGF-BB) (UniProt P01127); assay: binding assay, method not restated
# [4] = biological target: transforming growth factor-β1 (TGF-β1) (UniProt P01137); assay: binding assay, method not restated
# [5] = biological target: vascular endothelial growth factor A (VEGF-A) (UniProt P15692); assay: binding assay, method not restated
# [6] = biological target: basic fibroblast growth factor (bFGF, FGF-2) (UniProt P09038); assay: equilibrium or kinetic binding, not said which
# [7] = biological target: transforming growth factor-β1 (TGF-β1) (UniProt P01137); assay: equilibrium or kinetic binding, not said which
# Sequence of transforming growth factor-β1 (TGF-β1) (P01137 279-390 limits assumed): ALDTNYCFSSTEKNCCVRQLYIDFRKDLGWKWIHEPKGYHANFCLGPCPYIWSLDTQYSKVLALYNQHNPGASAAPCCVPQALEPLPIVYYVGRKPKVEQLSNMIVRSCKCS
# Sequence of platelet-derived growth factor-BB (PDGF-BB) (P01127 82-190 limits assumed): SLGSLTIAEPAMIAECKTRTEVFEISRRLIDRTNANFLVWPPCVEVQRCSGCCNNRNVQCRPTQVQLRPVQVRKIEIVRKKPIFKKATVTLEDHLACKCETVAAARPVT
# Sequence of basic fibroblast growth factor (bFGF, FGF-2) (P09038 143-288 limits assumed): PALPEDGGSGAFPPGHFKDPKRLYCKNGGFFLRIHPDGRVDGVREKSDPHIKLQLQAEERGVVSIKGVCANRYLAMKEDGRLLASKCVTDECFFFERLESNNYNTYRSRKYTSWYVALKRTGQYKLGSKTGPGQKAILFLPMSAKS
# Sequence of vascular endothelial growth factor A (VEGF-A) (P15692 other isoform, or with tags, fused parts or gaps limits assumed): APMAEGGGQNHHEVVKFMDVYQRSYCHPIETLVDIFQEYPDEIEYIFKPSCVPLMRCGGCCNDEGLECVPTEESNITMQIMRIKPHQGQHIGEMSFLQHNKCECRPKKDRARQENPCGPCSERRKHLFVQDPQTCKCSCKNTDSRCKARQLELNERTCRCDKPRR
substance,measurement,setting,value
"IIICS, variably-spliced domain of fibronectin (from UniProt P02751 2083-2202)",Kd,[1],350 nM
same,Kd,[2],100 nM
same,Kd,[3],100 nM
same,Kd,[4],100 nM
same,Kd,[5],100 nM
same,Kd,[6],58 nM
same,Kd,[7],74 nM
